From patent US20040265972A1 (published 2004) come the findings set out here.

This assay has as its target T1, human TSH receptor stably expressed on Chinese Hamster Ovary (CHO) cells (CHO-hTSHR clone JP09 and clone JP26) (human, UniProt P16473 21-764).
T1 construct: whole, on cells; also called hTSH receptor; CHO-JPO9
Nature of the assay: told in words; bioactivity assay on CHO-JPO9 cells expressing the TSH receptor.

B1: mutant TSH heterodimer of wild type human common α-subunit and mutant human TSH-β subunit βE6N (ligand)
alpha: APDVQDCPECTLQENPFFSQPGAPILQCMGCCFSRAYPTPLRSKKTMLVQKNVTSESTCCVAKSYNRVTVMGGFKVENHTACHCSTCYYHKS
beta: FCIPTNYTMHIERRECAYCLTINTTICAGYCMTRDINGKLFLPKYALSQDVCTYRDFIYRTVEIPGCPLHVAPYFSYPVALSCKCGKCNTDYSDCIHEAIKTNYCTKPQKSYLVGFSV
modifications: Both subunits are N-glycosylated (secreted from CHO-K1 cells). They form a noncovalent heterodimer. The letters carry neither feature.
notes: Transiently expressed in CHO-K1 cells
As for B1, the binding result is recorded as “binds”.
